{"source": "paper PMC2667179", "target": "sucrose synthase (Nicotiana tabacum (endogenous in BY-2 cells))", "experiment": "native gel or EMSA; two-dimensional blue native PAGE (4-14.5% gradient, 4°C) then SDS-PAGE of BY-2 plasma membrane proteins solubilized with 1% n-octyl-beta-D-glucopyranoside (750 mM amino caproic acid, 100 mM BisTris pH 7.0); subunits detected by immunoblotting on separate blots; association judged by comigration"}
{"substance": "sucrose synthase (enzyme)", "values": [{"measurement": "stoichiometry N", "value": 4}]}
